Biological target: wild-type T7 RNA polymerase (Enterobacteria phage T7 (gene from E. …, UniProt P00573 1-883))
Assay: EMSA; 2.5 uM dsDNA; half-saturation compared only in figure, not a true Kd; 50 mM Tris acetate, 10 mM magnesium acetate, 50 mM sodium acetate (pH not stated), 25 °C, 30 min; 1.5% TAE agarose gel
Settings: protein: recombinant; label: 5' ATTO488 on strand 1; blunt

Chain of wild-type T7 RNA polymerase (Enterobacteria phage T7 (P00573 whole entry): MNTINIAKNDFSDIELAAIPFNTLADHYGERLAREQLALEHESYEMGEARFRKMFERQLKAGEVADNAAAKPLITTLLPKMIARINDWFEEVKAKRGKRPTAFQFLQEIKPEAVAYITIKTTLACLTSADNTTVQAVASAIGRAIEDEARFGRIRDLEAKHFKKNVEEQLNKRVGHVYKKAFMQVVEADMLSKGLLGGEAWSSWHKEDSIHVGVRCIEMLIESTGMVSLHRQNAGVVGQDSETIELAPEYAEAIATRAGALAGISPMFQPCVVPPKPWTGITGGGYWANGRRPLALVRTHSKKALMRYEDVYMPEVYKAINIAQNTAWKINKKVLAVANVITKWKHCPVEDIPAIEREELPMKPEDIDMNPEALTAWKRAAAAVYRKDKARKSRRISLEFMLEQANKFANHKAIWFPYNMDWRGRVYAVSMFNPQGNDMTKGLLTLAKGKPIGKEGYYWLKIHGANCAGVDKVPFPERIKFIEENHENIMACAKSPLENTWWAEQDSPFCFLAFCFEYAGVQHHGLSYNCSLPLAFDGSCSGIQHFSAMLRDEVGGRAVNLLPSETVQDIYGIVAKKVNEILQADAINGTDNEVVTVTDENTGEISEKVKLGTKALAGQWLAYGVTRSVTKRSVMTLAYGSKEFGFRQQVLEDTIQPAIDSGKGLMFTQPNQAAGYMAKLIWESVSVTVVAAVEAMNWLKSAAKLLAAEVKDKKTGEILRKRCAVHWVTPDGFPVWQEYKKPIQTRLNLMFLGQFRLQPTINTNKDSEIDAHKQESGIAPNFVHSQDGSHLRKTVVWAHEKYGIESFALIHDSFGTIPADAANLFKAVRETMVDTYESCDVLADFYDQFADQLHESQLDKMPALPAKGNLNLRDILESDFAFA

B1: T7 promoter dsDNA (dsDNA)
DNA 1: GCCAGTAATACGACTCACTATAGGG
DNA 2: CCCTATAGTGAGTCGTATTACTGGC
- binding result: binds

— paper PMC5364489, “Isolation and characterization of the E. coli membrane protein production strain Mutant56(DE3)”
